Test results: the Human Domainome abundance scans (Beltran et al. 2025)
± gives the uncertainty stated by the source.

B1: Cell division cycle and apoptosis regulator protein 1, residues 625 to 674; numbered along this chain, Q8IX12 (parent)
chain: ISTPTHWSKLDPKTMKVNDLRKELESRALSSKGLKSQLIARLTKQLKVEE

Variants of: B1
Assay: abundance fitness (aPCA) (normalised: wild type 0, dead -1); higher = more abundant; growth selection in yeast, the domain comes from the species named
Conditions: Homo sapiens

Row | Variant | abundance fitness
1 | ISTPTHWSKIDPKTMKVNDLRKELESRALSSKGLKSQLIARLTKQLKVEE [L10I] | -0.203 ± 0.06
2 | ISTPMHWSKLDPKTMKVNDLRKELESRALSSKGLKSQLIARLTKQLKVEE [T5M] | -0.067 ± 0.031
3 | ISTPTHWSKLDPKTMKVNDLRKELESRWLSSKGLKSQLIARLTKQLKVEE [A28W] | -0.053 ± 0.041
4 | ISTPTHWSKLDPKTMKVNDLRKELESRALSSKGLKSQLIARLTYQLKVEE [K44Y] | -0.229 ± 0.046
5 | ISYPTHWSKLDPKTMKVNDLRKELESRALSSKGLKSQLIARLTKQLKVEE [T3Y] | 0.124 ± 0.07
6 | ISTPTHWSKLDPKTMKVNDLRKELESRPLSSKGLKSQLIARLTKQLKVEE [A28P] | -0.782 ± 0.064
7 | ISTPTHWSKLDPKTMKVNDLRKELESRALSSKGLKSQLIARLTKLLKVEE [Q45L] | -0.46 ± 0.048
8 | ISTPTHWSKLDPKTMKVNDLRKELESRALSSKGLKSQLIARLTKQLHVEE [K47H] | -0.212 ± 0.059
9 | ISTPTHWSKLDPKTMKVNDLRKELESRALSSKGLLSQLIARLTKQLKVEE [K35L] | -0.243 ± 0.043
10 | ISTPTHWSKLDPKTMKVNDLRKELESRALKSKGLKSQLIARLTKQLKVEE [S30K] | 0.037 ± 0.047
11 | ISTPTHWSKLDPTTMKVNDLRKELESRALSSKGLKSQLIARLTKQLKVEE [K13T] | -0.13 ± 0.046
12 | ISTPTHWSKLDPKTMKVNDLRKELESRALSSKGLKSQEIARLTKQLKVEE [L38E] | -0.423 ± 0.035
13 | ISTPTHWSKLDPKTMKVNDLRKELESNALSSKGLKSQLIARLTKQLKVEE [R27N] | -0.871 ± 0.1
14 | ISTPTHWSKLDPKTMKVNDLRKELESRGLSSKGLKSQLIARLTKQLKVEE [A28G] | 0.145 ± 0.033
15 | ISTPTHWSKLDPKTMKVNDLRKELESRALSSKGLKSQLIARLTKQLKMEE [V48M] | -0.092 ± 0.069
16 | ISTPTHWSKLDPKTMKVNDLRKELESRALSSKGLKSQLIARPTKQLKVEE [L42P] | -0.472 ± 0.076
17 | ISTPTHWSKLDPKTMKVNDLRKELESRALSSEGLKSQLIARLTKQLKVEE [K32E] | -0.104 ± 0.032
18 | ISTPTHWSKLDPKTMKVNDLRKELESRALSDKGLKSQLIARLTKQLKVEE [S31D] | -0.156 ± 0.05
19 | ISTPTHWSKLDPGTMKVNDLRKELESRALSSKGLKSQLIARLTKQLKVEE [K13G] | -0.255 ± 0.036
20 | ISTPTHWSKLDPKTMKVNDLRKELESRALSSFGLKSQLIARLTKQLKVEE [K32F] | -0.213 ± 0.047
21 | ISTPTHWSKLDPKTMKVNDLRKELESRALSSKGLKSQLIALLTKQLKVEE [R41L] | -0.331 ± 0.041
22 | IITPTHWSKLDPKTMKVNDLRKELESRALSSKGLKSQLIARLTKQLKVEE [S2I] | 0.18 ± 0.071
23 | ISTPTHWSKLDPKNMKVNDLRKELESRALSSKGLKSQLIARLTKQLKVEE [T14N] | 0.038 ± 0.065
24 | ISTPTHWSKLDPKTMKVIDLRKELESRALSSKGLKSQLIARLTKQLKVEE [N18I] | 0.077 ± 0.027
25 | ISTPTHWSKLDPKTMKVRDLRKELESRALSSKGLKSQLIARLTKQLKVEE [N18R] | 0.079 ± 0.028
26 | ISTPTHWSKLDPKTMKVNDLRKELESRALSYKGLKSQLIARLTKQLKVEE [S31Y] | -0.123 ± 0.071

Row | Variant | abundance fitness
27 | ISTPTHWSKLDPKAMKVNDLRKELESRALSSKGLKSQLIARLTKQLKVEE [T14A] | -0.019 ± 0.033
28 | ISTPTHWSKLDPKTMKVNDLRKELESRALSSKDLKSQLIARLTKQLKVEE [G33D] | -0.62 ± 0.079
29 | ISTPTHWSKLDCKTMKVNDLRKELESRALSSKGLKSQLIARLTKQLKVEE [P12C] | -0.223 ± 0.034
30 | ISTPDHWSKLDPKTMKVNDLRKELESRALSSKGLKSQLIARLTKQLKVEE [T5D] | -0.689 ± 0.094
31 | ISTPTHRSKLDPKTMKVNDLRKELESRALSSKGLKSQLIARLTKQLKVEE [W7R] | -0.178 ± 0.036
32 | ISTPTHWSKLDPKTMKVLDLRKELESRALSSKGLKSQLIARLTKQLKVEE [N18L] | 0.113 ± 0.028
33 | ISTPTHWSKLDPKTRKVNDLRKELESRALSSKGLKSQLIARLTKQLKVEE [M15R] | -0.758 ± 0.057
34 | ISTPTHWSKLDPKTMKVNDLRKELESAALSSKGLKSQLIARLTKQLKVEE [R27A] | -0.713 ± 0.064
35 | ISTPTHWSKLDPKTMKVNDLRKELESRALSSLGLKSQLIARLTKQLKVEE [K32L] | -0.071 ± 0.036
36 | ISTPTHWSKLDPKTMKVNDLRKELKSRALSSKGLKSQLIARLTKQLKVEE [E25K] | 0.002 ± 0.043
37 | ISTPTHWCKLDPKTMKVNDLRKELESRALSSKGLKSQLIARLTKQLKVEE [S8C] | -0.007 ± 0.065
38 | ISTPTHWSYLDPKTMKVNDLRKELESRALSSKGLKSQLIARLTKQLKVEE [K9Y] | -0.158 ± 0.049
39 | ISTPTHWSKLWPKTMKVNDLRKELESRALSSKGLKSQLIARLTKQLKVEE [D11W] | -0.109 ± 0.041
40 | ISTPTHWSKLDPKTMKVNDLCKELESRALSSKGLKSQLIARLTKQLKVEE [R21C] | -0.039 ± 0.048
41 | WSTPTHWSKLDPKTMKVNDLRKELESRALSSKGLKSQLIARLTKQLKVEE [I1W] | -0.478 ± 0.1
42 | ISTPTHWSKLEPKTMKVNDLRKELESRALSSKGLKSQLIARLTKQLKVEE [D11E] | 0.071 ± 0.048
43 | ISTPTHWSKLDPKTMKVNDLRKELESRALSSKGLKSQLIARLTKCLKVEE [Q45C] | -0.042 ± 0.056
44 | ISTPTHWSKLDPKTMKVNDLRKELELRALSSKGLKSQLIARLTKQLKVEE [S26L] | 0.118 ± 0.038
45 | ISTPTHWSKLDPKTMKVNDLRKELESRALSSKGLMSQLIARLTKQLKVEE [K35M] | -0.244 ± 0.048
46 | ISTPTHWSKLDPKTMKVNDLRKELESRALSSKGLKSQLIAHLTKQLKVEE [R41H] | -0.374 ± 0.051
47 | ISTPTHWSKLDPKTMKVWDLRKELESRALSSKGLKSQLIARLTKQLKVEE [N18W] | -0.015 ± 0.03
48 | ISTPTHWSKLDPKTMKVNDLRKELESRALSSKGLKSQLIARLTKQLKVEI [E50I] | 0.068 ± 0.16
49 | ISTPTHWSKLDPKTMKVNDLRKESESRALSSKGLKSQLIARLTKQLKVEE [L24S] | -0.806 ± 0.051
50 | ISTPTHWSKLDPKTMKVNDLRKELESRALSSKGLKSPLIARLTKQLKVEE [Q37P] | -0.231 ± 0.054
51 | ISTPTHWSKLDPKTMKVNDLRKELESRALSSKGLKSQPIARLTKQLKVEE [L38P] | -0.634 ± 0.046
52 | ISTPTHWSKLDPKTMKVNDLRKELESRALSSKGLKSQLIARLTKQSKVEE [L46S] | -0.676 ± 0.04
